Here are results for 1 molecule from patent publication WO2018135651A1 (dated 2018).

The target of the assay is T1, Human survivin (1-142 aa, N-terminal calmodulin tag, recombinant, #SUR0801, ATGen Co., Ltd.) (human, UniProt O15392 1-142).
T1 construct: range 1-142; Bought recombinant protein, used in solution at 100, 10 and 1 ng/mL; also called antigen; not shown: N-terminal calmodulin tag of the bought product
In words: sandwich ELISA; VHH-STM complex adsorbed to the plate as capture, survivin in solution, detection with rabbit anti-survivin polyclonal antibody.

T1 sequence (O15392 whole entry, the tested form may be a part): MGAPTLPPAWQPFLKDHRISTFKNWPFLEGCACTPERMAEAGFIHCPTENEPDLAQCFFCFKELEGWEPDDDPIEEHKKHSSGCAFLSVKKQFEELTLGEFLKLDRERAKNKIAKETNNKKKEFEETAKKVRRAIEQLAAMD

B1: VHH-STM complex (antibody complex consisting of an anti-human survivin VHH antibody and a stefin A mutant) (VHH)
VHH: EVQLVESGGGSVQAGGSLRLSCAASGVSNTDMIMIWFRQAPGKEREGVLAAIYKNSTYYADSVKGRFTISQDNAKNTVYLQMNSLKPEDTAIYYCAAIRAVIGRHIRPHIYWGQGTQVTVSS
notes: Single-chain fusion: anti-human survivin VHH, linker, stefin A mutant (STM), His tag, C-terminal Cys; Secreted from Brevibacillus choshinensis and Ni-NTA purified; Adsorbed directly to the plate as capture reagent; also called VHH-STM conjugate; VHH antibody-STM conjugate
Regarding B1, the binding result is given as “binds”.
